Assay results as given in the MegaScale stability set (Tsuboyama et al. 2023).

B1: EHEE_rd2_0601 (parent)
chain: TYTYKLTDEEASRRAEDEWRNRGYDVRVRNNNGTWEVEVR

Variants of: B1
Test: folding stability dG (cDNA display proteolysis); higher = more stable
Conditions: PBS, room temperature

| Variant | folding stability dG [kcal/mol] |
| --- | --- |
| TYTYKLTDEEASRRAEDEWRNRMYDVRVRNNNGTWEVEVR | -0.97 |
| TYTYKLTDEEASRRAEDEWRNRKYDVRVRNNNGTWEVEVR | -0.509 |
| TYTYKLTDEEASRRAEDEWRNRHYDVRVRNNNGTWEVEVR | -0.048 |
| TYTYKLTDEEASRRAEDEWRNRFYDVRVRNNNGTWEVEVR | -0.542 |
| TYTYKLTDEEASRRAEDEWRNRQYDVRVRNNNGTWEVEVR | -0.624 |
| TYTYKLTDEEASRRAEDEWRNRWYDVRVRNNNGTWEVEVR | -0.693 |
| TYTYKLTDEEASRRAEDEWRNRCYDVRVRNNNGTWEVEVR | 1.14 |
| TYTYKLTDEEASRRAEDEWRNRNYDVRVRNNNGTWEVEVR | -0.169 |
| TYTYKLTDEEASRRAEDEWRNRYYDVRVRNNNGTWEVEVR | -0.588 |
| TYTYKLTDEEASRRAEDEWRNQGYDVRVRNNNGTWEVEVR | 0.939 |
| TYTYKLTDEEASRRAEDEWRNHGYDVRVRNNNGTWEVEVR | 0.666 |
| TYTYKLTDEEASRRAEDEWRNSGYDVRVRNNNGTWEVEVR | 0.439 |
| TYTYKLTDEEASRRAEDEWRNKGYDVRVRNNNGTWEVEVR | 1.45 |
| TYTYKLTDEEASRRAEDEWRNWGYDVRVRNNNGTWEVEVR | 0.762 |
| TYTYKLTDEEASRRAEDEWRNYGYDVRVRNNNGTWEVEVR | 0.488 |
| TYTYKLTDEEASRRAEDEWRNFGYDVRVRNNNGTWEVEVR | 0.44 |
| TYTYKLTDEEASRRAEDEWRNTGYDVRVRNNNGTWEVEVR | -0.242 |
| TYTYKLTDEEASRRAEDEWRNGGYDVRVRNNNGTWEVEVR | 0.192 |
| TYTYKLTDEEASRRAEDEWRNIGYDVRVRNNNGTWEVEVR | 0.421 |
| TYTYKLTDEEASRRAEDEWRNVGYDVRVRNNNGTWEVEVR | -0.052 |
| TYTYKLTDEEASRRAEDEWRNNGYDVRVRNNNGTWEVEVR | 0.518 |
| TYTYKLTDEEASRRAEDEWRNCGYDVRVRNNNGTWEVEVR | 1.03 |
| TYTYKLTDEEASRRAEDEWRNEGYDVRVRNNNGTWEVEVR | 0.251 |
| TYTYKLTDEEASRRAEDEWRNDGYDVRVRNNNGTWEVEVR | -0.181 |
| TYTYKLTDEEASRRAEDEWRNMGYDVRVRNNNGTWEVEVR | 1.29 |

| Variant | folding stability dG [kcal/mol] |
| --- | --- |
| TYTYKLTDEEASRRAEDEWRNLGYDVRVRNNNGTWEVEVR | 1.46 |
| TYTYKLTDEEASRRAEDEWRNAGYDVRVRNNNGTWEVEVR | 1.22 |
| TYTYKLTDEEASRRAEDEWRNRGYDVKVRNNNGTWEVEVR | 1.6 |
| TYTYKLTDEEASRRAEDEWRNRGYDVHVRNNNGTWEVEVR | 1.56 |
| TYTYKLTDEEASRRAEDEWRNRGYDVPVRNNNGTWEVEVR | -0.472 |
| TYTYKLTDEEASRRAEDEWRNRGYDVVVRNNNGTWEVEVR | 2.05 |
| TYTYKLTDEEASRRAEDEWRNRGYDVCVRNNNGTWEVEVR | 1.69 |
| TYTYKLTDEEASRRAEDEWRNRGYDVWVRNNNGTWEVEVR | 1.27 |
| TYTYKLTDEEASRRAEDEWRNRGYDVYVRNNNGTWEVEVR | 1.52 |
| TYTYKLTDEEASRRAEDEWRNRGYDVSVRNNNGTWEVEVR | 1.69 |
| TYTYKLTDEEASRRAEDEWRNRGYDVDVRNNNGTWEVEVR | 1.07 |
| TYTYKLTDEEASRRAEDEWRNRGYDVIVRNNNGTWEVEVR | 2.09 |
| TYTYKLTDEEASRRAEDEWRNRGYDVEVRNNNGTWEVEVR | 1.6 |
| TYTYKLTDEEASRRAEDEWRNRGYDVQVRNNNGTWEVEVR | 1.56 |
| TYTYKLTDEEASRRAEDEWRNRGYDVAVRNNNGTWEVEVR | 1.42 |
| TYTYKLTDEEASRRAEDEWRNRGYDVTVRNNNGTWEVEVR | 2.03 |
| TYTYKLTDEEASRRAEDEWRNRGYDVGVRNNNGTWEVEVR | 0.575 |
| TYTYKLTDEEASRRAEDEWRNRGYDVFVRNNNGTWEVEVR | 1.67 |
| TYTYKLTDEEASRRAEDEWRNRGYDVMVRNNNGTWEVEVR | 1.49 |
| TYTYKLTDEEASRRAEDEWRNRGYDVNVRNNNGTWEVEVR | 1.36 |
| TYTYKLTDEEASRRAEDEWRNRGYDVLVRNNNGTWEVEVR | 1.68 |
| TYTYKLTDEEASRRAEDEWRNRGYDVRYRNNNGTWEVEVR | 0.207 |
| TYTYKLTDEEASRRAEDEWRNRGYDVRHRNNNGTWEVEVR | -0.199 |
| TYTYKLTDEEASRRAEDEWRNRGYDVRWRNNNGTWEVEVR | 0.13 |
| TYTYKLTDEEASRRAEDEWRNRGYDVRMRNNNGTWEVEVR | 0.531 |

| Variant | folding stability dG [kcal/mol] |
| --- | --- |
| TYTYKLTDEEASRRAEDEWRNRGYDVRTRNNNGTWEVEVR | 0.683 |
| TYTYKLTDEEASRRAEDEWRNRGYDVRKRNNNGTWEVEVR | -0.078 |
| TYTYKLTDEEASRRAEDEWRNRGYDVRCRNNNGTWEVEVR | 0.766 |
| TYTYKLTDEEASRRAEDEWRNRGYDVRQRNNNGTWEVEVR | -0.695 |
| TYTYKLTDEEASRRAEDEWRNRGYDVRGRNNNGTWEVEVR | -0.651 |
| TYTYKLTDEEASRRAEDEWRNRGYDVRSRNNNGTWEVEVR | 0.536 |
| TYTYKLTDEEASRRAEDEWRNRGYDVRDRNNNGTWEVEVR | -0.612 |
| TYTYKLTDEEASRRAEDEWRNRGYDVRLRNNNGTWEVEVR | 0.62 |
| TYTYKLTDEEASRRAEDEWRNRGYDVRIRNNNGTWEVEVR | 1.44 |
| TYTYKLTDEEASRRAEDEWRNRGYDVRNRNNNGTWEVEVR | -0.678 |
| TYTYKLTDEEASRRAEDEWRNRGYDVRRRNNNGTWEVEVR | 1.38 |
| TYTYKLTDEEASRRAEDEWRNRGYDVRARNNNGTWEVEVR | 0.322 |
| TYTYKLTDEEASRRAEDEWRNRGYDVRFRNNNGTWEVEVR | 0.162 |
| TYTYKLTDEEASRRAEDEWRNRGYLVRVRNNNGTWEVEVR | 1.48 |
| TYTYKLTDEEASRRAEDEWRNRGYRVRVRNNNGTWEVEVR | 1.23 |
| TYTYKLTDEEASRRAEDEWRNRGYYVRVRNNNGTWEVEVR | 1.27 |
| TYTYKLTDEEASRRAEDEWRNRGYVVRVRNNNGTWEVEVR | 1.52 |
| TYTYKLTDEEASRRAEDEWRNRGYAVRVRNNNGTWEVEVR | 1.25 |
| TYTYKLTDEEASRRAEDEWRNRGYEVRVRNNNGTWEVEVR | 1.82 |
| TYTYKLTDEEASRRAEDEWRNRGYPVRVRNNNGTWEVEVR | 0.219 |
| TYTYKLTDEEASRRAEDEWRNRGYFVRVRNNNGTWEVEVR | 1.35 |
| TYTYKLTDEEASRRAEDEWRNRGYSVRVRNNNGTWEVEVR | 1.3 |
| TYTYKLTDEEASRRAEDEWRNRGYTVRVRNNNGTWEVEVR | 1.46 |
| TYTYKLTDEEASRRAEDEWRNRGYWVRVRNNNGTWEVEVR | 1.53 |
| TYTYKLTDEEASRRAEDEWRNRGYQVRVRNNNGTWEVEVR | 1.64 |

| Variant | folding stability dG [kcal/mol] |
| --- | --- |
| TYTYKLTDEEASRRAEDEWRNRGYGVRVRNNNGTWEVEVR | 0.602 |
| TYTYKLTDEEASRRAEDEWRNRGYIVRVRNNNGTWEVEVR | 1.76 |
| TYTYKLTDEEASRRAEDEWRNRGYMVRVRNNNGTWEVEVR | 1.36 |
| TYTYKLTDEEASRRAEDEWRNRGYKVRVRNNNGTWEVEVR | 1.16 |
| TYTYKLTDEEASRRAEDEWRNRGYNVRVRNNNGTWEVEVR | 1.3 |
| TYTYKLTDEEASRRAEDEWRNRGYHVRVRNNNGTWEVEVR | 1.56 |
| TYTYKLTDEEASRRAEDEWRNRGYDIRVRNNNGTWEVEVR | 0.319 |
| TYTYKLTDEEASRRAEDEWRNRGYDFRVRNNNGTWEVEVR | -0.688 |
| TYTYKLTDEEASRRAEDEWRNRGYDARVRNNNGTWEVEVR | 0.393 |
| TYTYKLTDEEASRRAEDEWRNRGYDPRVRNNNGTWEVEVR | -0.384 |
| TYTYKLTDEEASRRAEDEWRNRGYDTRVRNNNGTWEVEVR | 0.439 |
| TYTYKLTDEEASRRAEDEWRYRGYDVRVRNNNGTWEVEVR | 0.831 |
| TYTYKLTDEEASRRAEDEWRLRGYDVRVRNNNGTWEVEVR | 1.65 |
| TYTYKLTDEEASRRAEDEWRIRGYDVRVRNNNGTWEVEVR | 1.22 |
| TYTYKLTDEEASRRAEDEWRARGYDVRVRNNNGTWEVEVR | 1.82 |
| TYTYKLTDEEASRRAEDEWRRRGYDVRVRNNNGTWEVEVR | 1.96 |
| TYTYKLTDEEASRRAEDEWRMRGYDVRVRNNNGTWEVEVR | 1.58 |
| TYTYKLTDEEASRRAEDEWRGRGYDVRVRNNNGTWEVEVR | 1.42 |
| TYTYKLTDEEASRRAEDEWRWRGYDVRVRNNNGTWEVEVR | 0.672 |
| TYTYKLTDEEASRRAEDEWRVRGYDVRVRNNNGTWEVEVR | 1.1 |
| TYTYKLTDEEASRRAEDEWRFRGYDVRVRNNNGTWEVEVR | 1.04 |
| TYTYKLTDEEASRRAEDEWRQRGYDVRVRNNNGTWEVEVR | 1.65 |
| TYTYKLTDEEASRRAEDEWRSRGYDVRVRNNNGTWEVEVR | 1.82 |
| TYTYKLTDEEASRRAEDEWRERGYDVRVRNNNGTWEVEVR | 1.34 |
| TYTYKLTDEEASRRAEDEWRDRGYDVRVRNNNGTWEVEVR | 1.16 |

| Variant | folding stability dG [kcal/mol] |
| --- | --- |
| TYTYKLTDEEASRRAEDEWRHRGYDVRVRNNNGTWEVEVR | 1.24 |
| TYTYKLTDEEASRRAEDEWRKRGYDVRVRNNNGTWEVEVR | 1.97 |
| TYTYKLTDEEASRRAEDEWRTRGYDVRVRNNNGTWEVEVR | 1.31 |
| TYTYKLTDEEASRRAEDEWRNRGFDVRVRNNNGTWEVEVR | 1.51 |
| TYTYKLTDEEASRRAEDEWRNRGKDVRVRNNNGTWEVEVR | -0.577 |
| TYTYKLTDEEASRRAEDEWRNRGQDVRVRNNNGTWEVEVR | -0.84 |
| TYTYKLTDEEASRRAEDEWRNRGTDVRVRNNNGTWEVEVR | -0.625 |
| TYTYKLTDEEASRRAEDEWRNRGRDVRVRNNNGTWEVEVR | -0.49 |
| TYTYKLTDEEASRRAEDEWRNRGVDVRVRNNNGTWEVEVR | 0.003 |
| TYTYKLTDEEASRRAEDEWRNRGCDVRVRNNNGTWEVEVR | 1.21 |
| TYTYKLTDEEASRRAEDEWRNRGMDVRVRNNNGTWEVEVR | 0.281 |
| TYTYKLTDEEASRRAEDEWRNRGLDVRVRNNNGTWEVEVR | 0.28 |
| TYTYKLTDEEASRRAEDEWRNRGNDVRVRNNNGTWEVEVR | -0.731 |
| TYTYKLTDEEASRRAEDEWRNRGWDVRVRNNNGTWEVEVR | 0.791 |
| TYTYKLTDEEASRRAEDEWRNRGADVRVRNNNGTWEVEVR | 0.049 |
| TYTYKLTDEEASRRAEDEWRNRGIDVRVRNNNGTWEVEVR | -0.012 |
| TYTYKLTDEEASRRAEDEWRNRGHDVRVRNNNGTWEVEVR | 0.447 |
| TYTYKLTDEEASRRAEDEWYNRGYDVRVRNNNGTWEVEVR | 0.246 |
| TYTYKLTDEEASRRAEDEWWNRGYDVRVRNNNGTWEVEVR | -0.078 |
| TYTYKLTDEEASRRAEDEWVNRGYDVRVRNNNGTWEVEVR | 0.659 |
| TYTYKLTDEEASRRAEDEWRNRGYDVRVANNNGTWEVEVR | 0.917 |
| TYTYKLTDEEASRRAEDEWRNRGYDVRVCNNNGTWEVEVR | 1.06 |
| TYTYKLTDEEASRRAEDEWRNRGYDVRVFNNNGTWEVEVR | 1.63 |
| TYTYKLTDEEASRRAEDEWRNRGYDVRVENNNGTWEVEVR | 0.726 |
| TYTYKLTDEEASRRAEDEWRNRGYDVRVDNNNGTWEVEVR | 0.413 |
